Measured values: the supplement of paper PMC5998384

Columns and labels:
HeLa Kyoto [1] = assay: thermal stability score vs G1/S (z-score of summed log2 fold changes over temperatures); higher = more thermally stable than in G1/S
HeLa Kyoto [2] = assay: solubility change mitosis vs G1/S (difference of NP-40 vs SDS log2 ratios) (log2 ratio difference); higher = more soluble in mitosis
HeLa Kyoto [3] = assay: melting temperature (median over replicates), in situ; higher = more thermally stable
HeLa Kyoto [4] = assay: solubility in G1/S (NP-40 vs SDS abundance) (log2 ratio); higher = more soluble; conditions: cell cycle stage: G1/S
[5] = cell cycle stage: early G1 (4.5 h after nocodazole release)
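Wherever melting temperature (median over replicates), in situ is given: HeLa Kyoto cells synchronized by double thymidine or nocodazole block, proteins quantified by TMT10plex mass spectrometry, three independent biological replicates.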
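Wherever solubility change mitosis vs G1/S (difference of NP-40 vs SDS log2 ratios) is given: synchronized HeLa Kyoto cells (double thymidine block for G1/S, nocodazole release for mitosis), protein amounts in NP-40 versus SDS lysates quantified by mass spectrometry, three biological replicates.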
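Wherever solubility in G1/S (NP-40 vs SDS abundance) is given: HeLa Kyoto cells arrested at G1/S by double thymidine block, proteins quantified by TMT10plex mass spectrometry in mild NP-40 versus SDS extracts, three biological replicates.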
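Wherever thermal stability score vs G1/S (z-score of summed log2 fold changes over temperatures) is given: synchronized HeLa Kyoto cells, proteins quantified by TMT10plex mass spectrometry, three biological replicates, mitosis taken 0.5 h after nocodazole release, G1/S directly after double thymidine block.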

Sequence: MPLHQLGDKPLTFPSPNSAMENGLDHTPPSRRASPGTPLSPGSLRSAAHSPLDTSKQPLCQLWAEKHGARGTHEVRYVSAGQSVACGWWAFAPPCLQVLNTPKGILFFLCAAAFLQGMTVNGFINTVITSLERRYDLHSYQSGLIASSYDIAACLCLTFVSYFGGSGHKPRWLGWGVLLMGTGSLVFALPHFTAGRYEVELDAGVRTCPANPGAVCADSTSGLSRYQLVFMLGQFLHGVGATPLYTLGVTYLDENVKSSCSPVYIAIFYTAAILGPAAGYLIGGALLNIYTEMGRRTELTTESPLWVGAWWVGFLGSGAAAFFTAVPILGYPRQLPGSQRYAVMRAAEMHQLKDSSRGEASNPDFGKTIRDLPLSIWLLLKNPTFILLCLAGATEATLITGMSTFSPKFLESQFSLSASEAATLFGYLVVPAGGGGTFLGGFFVNKLRLRGSAVIKFCLFCTVVSLLGILVFSLHCPSVPMAGVTASYGGSLLPEGHLNLTAPCNAACSCQPEHYSPVCGSDGLMYFSLCHAGCPAATETNVDGQKVYRDCSCIPQNLSSGFGHATAGKCTSTCQRKPLLLVFIFVVIFFTFLSSIPALTATLRCVRDPQRSFALGIQWIVVRILGGIPGPIAFGWVIDKACLLWQDQCGQQGSCLVYQNSAMSRYILIMGLLYKVLGVLFFAIACFLYKPLSESSDGLETCLPSQSSAPDSATDSQLQSSV [SLCO4A1]
- thermal stability score (HeLa Kyoto [1]; [5]): -0.978
- thermal stability score (HeLa Kyoto [1]; cell cycle stage: mitosis): -0.221
- solubility change mitosis (log2) (HeLa Kyoto [2]): -0.143
- melting temperature (HeLa Kyoto [3]; cell cycle stage: G1/S): 55.2 °C
- melting temperature (HeLa Kyoto [3]; cell cycle stage: mitosis): 56.9 °C
- solubility in G1/S (log2) (HeLa Kyoto [4]): 0.576

Sequence: MPLKWKTSSPAIWKFPVPVLKTSRSTPLSPAYISLVEEEDQHMKLSLGGSEMGLSSHLQSSKAGPTRIFTSNTHSSVVLQGFDQLRLEGLLCDVTLMPGDTDDAFPVHRVMMASASDYFKAMFTGGMKEQDLMCIKLHGVSKVGLRKIIDFIYTAKLSLNMDNLQDTLEAASFLQILPVLDFCKVFLISGVTLDNCVEVGRIANTYNLTEVDKYVNSFVLKNFPALLSTGEFLKLPFERLAFVLSSNSLKHCTELELFKATCRWLRLEEPRMDFAAKLMKNIRFPLMTPQELINYVQTVDFMRTDNTCVNLLLEASNYQMMPYMQPVMQSDRTAIRSDTTHLVTLGGVLRQQLVVSKELRMYDEKAHEWKSLAPMDAPRYQHGIAVIGNFLYVVGGQSNYDTKGKTAVDTVFRFDPRYNKWMQVASLNEKRTFFHLSALKGYLYAVGGRNAAGELPTVECYNPRTNEWTYVAKMSEPHYGHAGTVYGGVMYISGGITHDTFQKELMCFDPDTDKWIQKAPMTTVRGLHCMCTVGERLYVIGGNHFRGTSDYDDVLSCEYYSPILDQWTPIAAMLRGQSDVGVAVFENKIYVVGGYSWNNRCMVEIVQKYDPDKDEWHKVFDLPESLGGIRACTLTVFPPEETTPSPSRESPLSAP [KLHL13]
- thermal stability score (HeLa Kyoto [1]; [5]): -0.01
- thermal stability score (HeLa Kyoto [1]; cell cycle stage: mitosis): 0.108
- solubility change mitosis (log2) (HeLa Kyoto [2]): -0.128
- melting temperature (HeLa Kyoto [3]; cell cycle stage: G1/S): 52.2 °C
- melting temperature (HeLa Kyoto [3]; cell cycle stage: mitosis): 50.4 °C
- solubility in G1/S (log2) (HeLa Kyoto [4]): -0.13

Sequence: MPLLTQQIQDEDDQYSLVASLDNVRNLSTILKAIHFREHATCFATKNGIKVTVENAKCVQANAFIQAGIFQEFKVQEESVTFRINLTVLLDCLSIFGSSPMPGTLTALRMCYQGYGYPLMLFLEEGGVVTVCKINTQEPEETLDFDFCSTNVINKIILQSEGLREAFSELDMTSEVLQITMSPDKPYFRLSTFGNAGSSHLDYPKDSDLMEAFHCNQTQVNRYKISLLKPSTKALVLSCKVSIRTDNRGFLSLQYMIRNEDGQICFVEYYCCPDEEVPESES [RAD1]
- thermal stability score (HeLa Kyoto [1]; [5]): 2.13
- thermal stability score (HeLa Kyoto [1]; cell cycle stage: mitosis): 0.628
- solubility change mitosis (log2) (HeLa Kyoto [2]): -0.225
- melting temperature (HeLa Kyoto [3]; cell cycle stage: G1/S): 51.4 °C
- melting temperature (HeLa Kyoto [3]; cell cycle stage: mitosis): 51.2 °C
- solubility in G1/S (log2) (HeLa Kyoto [4]): -0.0871

Sequence: MPLRLDIKRKLTARSDRVKSVDLHPTEPWMLASLYNGSVCVWNHETQTLVKTFEVCDLPVRAAKFVARKNWVVTGADDMQIRVFNYNTLERVHMFEAHSDYIRCIAVHPTQPFILTSSDDMLIKLWDWDKKWSCSQVFEGHTHYVMQIVINPKDNNQFASASLDRTIKVWQLGSSSPNFTLEGHEKGVNCIDYYSGGDKPYLISGADDRLVKIWDYQNKTCVQTLEGHAQNVSCASFHPELPIIITGSEDGTVRIWHSSTYRLESTLNYGMERVWCVASLRGSNNVALGYDEGSIIVKLGREEPAMSMDANGKIIWAKHSEVQQANLKAMGDAEIKDGERLPLAVKDMGSCEIYPQTIQHNPNGRFVVVCGDGEYIIYTAMALRNKSFGSAQEFAWAHDSSEYAIRESNSIVKIFKNFKEKKSFKPDFGAESIYGGFLLGVRSVNGLAFYDWDNTELIRRIEIQPKHIFWSDSGELVCIATEESFFILKYLSEKVLAAQETHEGVTEDGIEDAFEVLGEIQEIVKTGLWVGDCFIYTSSVNRLNYYVGGEIVTIAHLDRTMYLLGYIPKDNRLYLGDKELNIISYSLLVSVLEYQTAVMRRDFSMADKVLPTIPKEQRTRVAHFLEKQGFKQQALTVSTDPEHRFELALQLGELKIAYQLAVEAESEQKWKQLAELAISKCQFGLAQECLHHAQDYGGLLLLATASGNANMVNKLAEGAERDGKNNVAFMSYFLQGKVDACLELLIRTGRLPEAAFLARTYLPSQVSRVVKLWRENLSKVNQKAAESLADPTEYENLFPGLKEAFVVEEWVKETHADLWPAKQYPLVTPNEERNVMEEGKDFQPSRSTAQQELDGKPASPTPVIVASHTANKEEKSLLELEVDLDNLELEDIDTTDINLDEDILDD [COPB2]
- thermal stability score (HeLa Kyoto [1]; [5]): -0.168
- thermal stability score (HeLa Kyoto [1]; cell cycle stage: mitosis): -0.888
- solubility change mitosis (log2) (HeLa Kyoto [2]): -0.0942
- melting temperature (HeLa Kyoto [3]; cell cycle stage: G1/S): 51.7 °C
- melting temperature (HeLa Kyoto [3]; cell cycle stage: mitosis): 51.3 °C
- solubility in G1/S (log2) (HeLa Kyoto [4]): -0.298

Sequence: MPLVTRNIEPRHLCRQTLPSVRSELECVTNITLANVIRQLGSLSKYAEDIFGELFTQANTFASRVSSLAERVDRLQVKVTQLDPKEEEVSLQGINTRKAFRSSTIQDQKLFDRNSLPVPVLETYNTCDTPPPLNNLTPYRDDGKEALKFYTDPSYFFDLWKEKMLQDTKDIMKEKRKHRKEKKDNPNRGNVNPRKIKTRKEEWEKMKMGQEFVESKEKLGTSGYPPTLVYQNGSIGCVENVDASSYPPPPQSDSASSPSPSFSEDNLPPPPAEFSYPVDNQRGSGLAGPKRSSVVSPSHPPPAPPLGSPPGPKPGFAPPPAPPPPPPPMIGIPPPPPPVGFGSPGTPPPPSPPSFPPHPDFAAPPPPPPPPAADYPTLPPPPLSQPTGGAPPPPPPPPPPGPPPPPFTGADGQPAIPPPLSDTTKPKSSLPAVSDARSDLLSAIRQGFQLRRVEEQREQEKRDVVGNDVATILSRRIAVEYSDSEDDSSEFDEDDWSD [WASF2]
- thermal stability score (HeLa Kyoto [1]; [5]): 0.736
- thermal stability score (HeLa Kyoto [1]; cell cycle stage: mitosis): 1.04
- solubility change mitosis (log2) (HeLa Kyoto [2]): -0.146
- melting temperature (HeLa Kyoto [3]; cell cycle stage: G1/S): 51.8 °C
- melting temperature (HeLa Kyoto [3]; cell cycle stage: mitosis): 51.5 °C
- solubility in G1/S (log2) (HeLa Kyoto [4]): 0.196

Sequence: MPMYQVKPYHGGGAPLRVELPTCMYRLPNVHGRSYGPAPGAGHVQEESNLSLQALESRQDDILKRLYELKAAVDGLSKMIQTPDADLDVTNIIQADEPTTLTTNALDLNSVLGKDYGALKDIVINANPASPPLSLLVLHRLLCEHFRVLSTVHTHSSVKSVPENLLKCFGEQNKKQPRQDYQLGFTLIWKNVPKTQMKFSIQTMCPIEGEGNIARFLFSLFGQKHNAVNATLIDSWVDIAIFQLKEGSSKEKAAVFRSMNSALGKSPWLAGNELTVADVVLWSVLQQIGGCSVTVPANVQRWMRSCENLAPFNTALKLLK [AIMP2]
- thermal stability score (HeLa Kyoto [1]; [5]): 0.153
- thermal stability score (HeLa Kyoto [1]; cell cycle stage: mitosis): 1.22
- solubility change mitosis (log2) (HeLa Kyoto [2]): 0.104
- melting temperature (HeLa Kyoto [3]; cell cycle stage: G1/S): 48.9 °C
- melting temperature (HeLa Kyoto [3]; cell cycle stage: mitosis): 49.6 °C
- solubility in G1/S (log2) (HeLa Kyoto [4]): 0.321

Sequence: MPPAVGGPVGYTPPDGGWGWAVVIGAFISIGFSYAFPKSITVFFKEIEGIFHATTSEVSWISSIMLAVMYGGGPISSILVNKYGSRIVMIVGGCLSGCGLIAASFCNTVQQLYVCIGVIGGLGLAFNLNPALTMIGKYFYKRRPLANGLAMAGSPVFLCTLAPLNQVFFGIFGWRGSFLILGGLLLNCCVAGALMRPIGPKPTKAGKDKSKASLEKAGKSGVKKDLHDANTDLIGRHPKQEKRSVFQTINQFLDLTLFTHRGFLLYLSGNVIMFFGLFAPLVFLSSYGKSQHYSSEKSAFLLSILAFVDMVARPSMGLVANTKPIRPRIQYFFAASVVANGVCHMLAPLSTTYVGFCVYAGFFGFAFGWLSSVLFETLMDLVGPQRFSSAVGLVTIVECCPVLLGPPLLGRLNDMYGDYKYTYWACGVVLIISGIYLFIGMGINYRLLAKEQKANEQKKESKEEETSIDVAGKPNEVTKAAESPDQKDTDGGPKEEESPV [SLC16A1]
- thermal stability score (HeLa Kyoto [1]; [5]): -4.15
- thermal stability score (HeLa Kyoto [1]; cell cycle stage: mitosis): -10.4
- solubility change mitosis (log2) (HeLa Kyoto [2]): -0.115
- melting temperature (HeLa Kyoto [3]; cell cycle stage: G1/S): 55 °C
- melting temperature (HeLa Kyoto [3]; cell cycle stage: mitosis): 57 °C
- solubility in G1/S (log2) (HeLa Kyoto [4]): 0.186
